Source: patent US20140086913A1 (Gilead, published 2014)

T1: human DDR2 stably expressed on HEK293 cells (human, UniProt Q16832 22-855)
T1 construct: whole, on cells; also called hDDR2
T1 sequence (looked up): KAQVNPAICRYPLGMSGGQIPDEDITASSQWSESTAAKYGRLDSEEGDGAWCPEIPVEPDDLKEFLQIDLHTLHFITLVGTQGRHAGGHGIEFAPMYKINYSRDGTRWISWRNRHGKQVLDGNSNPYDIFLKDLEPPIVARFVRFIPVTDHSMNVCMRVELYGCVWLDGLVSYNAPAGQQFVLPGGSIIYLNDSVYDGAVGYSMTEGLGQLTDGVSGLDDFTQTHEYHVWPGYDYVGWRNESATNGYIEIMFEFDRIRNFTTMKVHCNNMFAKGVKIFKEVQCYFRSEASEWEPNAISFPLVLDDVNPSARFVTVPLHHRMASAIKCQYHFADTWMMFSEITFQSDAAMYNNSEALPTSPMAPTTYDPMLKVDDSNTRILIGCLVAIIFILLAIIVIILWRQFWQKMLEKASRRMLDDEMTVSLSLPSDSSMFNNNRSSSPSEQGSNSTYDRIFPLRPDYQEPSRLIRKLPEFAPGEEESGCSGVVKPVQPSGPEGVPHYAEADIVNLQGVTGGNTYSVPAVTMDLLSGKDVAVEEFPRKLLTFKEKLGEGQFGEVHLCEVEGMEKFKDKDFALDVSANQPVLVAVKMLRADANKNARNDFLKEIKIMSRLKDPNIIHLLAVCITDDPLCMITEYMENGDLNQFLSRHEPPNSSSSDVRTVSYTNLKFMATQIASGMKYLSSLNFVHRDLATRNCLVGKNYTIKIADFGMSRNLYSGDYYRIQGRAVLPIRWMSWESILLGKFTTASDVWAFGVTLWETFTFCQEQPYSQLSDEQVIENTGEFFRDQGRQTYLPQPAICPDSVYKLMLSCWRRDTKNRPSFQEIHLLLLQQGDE

B1: AB2041 (antibody, V domains shown)
VH: QVQLHQSGSELAKPGASVKMSCKASGYIFTTYWIHWLKQRPGQGLEWIGFINPDTDYTEYNQKFKDKATLTADKSSNTAYVQLSSLTSEDSAVYYCARGNYGYDGLVYWGLGTLVTVSA
VL: SIVMTQTPKFLLVSAGDRVTITCKASQSVSTDVAWYQQKPGQSPKLLIYYASNRYTGVPDRFTGSGYGTDFTFTISTVQAEDLAVYFCQQDYNSYTFGGGTKLEIKR
notes: mouse hybridoma mAb
B2: AB2092 (antibody, V domains shown)
VH: QIQLVQSGPELKKSGETVKISCKASGYTFTDYGMNWVKQAPGKGLKWMGWINTYTGKSTYADDFKGRFAFSLETSASTTYLQITNLKNEDMATYFCARWADYFGSSYLFASWGQGTLVTVSA
VL: DVLMTQTPLSLPVSLGDQASISCRSSQSIVHSDGNTYLEWYLQKPGQSPKLLIYKVSNRFSGVPDRFSGSGSGTDFTLKISRVEAEDLGIYYCFQGSHVPWTFGGGTKLEIKR
notes: mouse hybridoma mAb
B3: AB2004 (antibody, V domains shown)
VH: DVHLQESGPDLVKPSQSLSLTCTVTDYSITSGYGWHWIRQFPGNKLEWMGYIHYGGSTKYNSSLKSRISITRDTSKNQFFLQLKSVTTDDTGTYYCATSGNYGFAYWGQGTLVTVSA
VL: DIVLTQSPTSLAVSLGQRATMSCRASESVDDYGTSFMHWYQQKPGQPPKLLIYRASNLESGIPARFSGSGSRADFTLSINPVEPDDVATYYCQQSNEDPFTFGSGTKLEIKR
notes: mouse hybridoma mAb
B4: AB2010 (antibody, V domains shown)
VH: QVQLKQSGPGLVQPSQSLSITCTVSGFSFTGYGIHWVRQSPGKGLEWLGVIWSGGITDYNAAFISRLSISMDSSKGQVFFKMNSLQANDTAIYYCARRSTTVVADYAMDYWGQGTSVTVSS
VL: SIVMTQTPKFLLVSAGDRVTITCKASQSVSNDVAWYQQKPGQSPKLLIYYASNRYTGVPDRFTGSGYGTDFTFTINTVQAEDLAVYFCQQDYTSPLTFGAGTKLELKR
notes: mouse hybridoma mAb
B5: AB2078 (antibody, V domains shown)
VH: EIQLQQSGPELVNPGASVKVSCKASGYSFTDYNMYWVKQSHGKSLEWIGYIDPYNGGTSYNQKFKGKATLTVDKSSSTAFMHLNSLTSEDSAVYYCAREYYGSRLWYFDVWGAGTAVTVSS
VL: DIVMTQSPSSLAMSVGQKVTMSCKSSQSLLNRNNQKNYLAWYQQKPGQSPKLLVYFASTRESGVPDRFIGSGSGTDFTLTLSSVRAEDLAENFCQQHYSTPFTFGSGTRLEIKR
notes: mouse hybridoma mAb
B6: AB2039 (antibody, V domains shown)
VH: EVQLVESGGGLVQPGGSLKFSCAASGFTFSSYGMSWVRQTPDKRLELVAIINSHGFSTYYPDSVKGRFTISRDNAKNTLYLQMSSLKSEDTAIYYCARGGYGNYGMDYWGQGTSVTVSS
VL: DIVLTQSPASLAVSLGQRATISCRASESVDSYGNSFMHWYQQKVGQPPKLLIFRASNIESGIPARFSGSGSRTDFTLTINSVEADDVATYYCQQSNEAPYTFGGGTKLEIKR
notes: mouse hybridoma mAb; also called AB0039

These binders were tested against DDR1 endogenously expressed on human cancer cell lines (T47D, HCT-116, A431) (human) (UniProt Q08345) (assay: flow cytometry, HCT116 cells).

Binder	MFI
B1	1270 MFI
B2	1310 MFI
B3	1490 MFI
B4	1730 MFI
B5	1480 MFI
B6	1490 MFI

Each binder was assayed against DDR1 endogenously expressed on human cancer cell lines (T47D, HCT-116, A431) (human) (UniProt Q08345) (assay: flow cytometry, T47D cells).

Binder	MFI
B1	2210 MFI
B2	3880 MFI
B3	5990 MFI
B4	6730 MFI
B5	4750 MFI
B6	4460 MFI

What follows are binders tested against T1, human DDR2 stably expressed on HEK293 … (assay: flow cytometry, HEK293/hDDR2).
How it was run: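 Anti-DDR1 mAbs or isotype controls (2 μg per 1×10⁶ cells) were incubated with the stably transfected HEK293 cells at 4 °C for 1 hr, then detected with anti-IgG-PE at 4 °C for 1 hr. Binding was read as flow-cytometry MFI, with vector-only HEK293 background subtracted.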

Binder	MFI
B1	265 MFI
B2	133 MFI
B3	289 MFI
B4	647 MFI
B5	380 MFI
B6	143 MFI

The binders below were run against human DDR1 (isoform B) stably expressed on HEK293 cells (human) (UniProt Q08345) (assay: flow cytometry, HEK293/hDDR1).
human DDR1 (isoform B) stably expressed on HEK293 cells (human), sequence (Q08345 19-913): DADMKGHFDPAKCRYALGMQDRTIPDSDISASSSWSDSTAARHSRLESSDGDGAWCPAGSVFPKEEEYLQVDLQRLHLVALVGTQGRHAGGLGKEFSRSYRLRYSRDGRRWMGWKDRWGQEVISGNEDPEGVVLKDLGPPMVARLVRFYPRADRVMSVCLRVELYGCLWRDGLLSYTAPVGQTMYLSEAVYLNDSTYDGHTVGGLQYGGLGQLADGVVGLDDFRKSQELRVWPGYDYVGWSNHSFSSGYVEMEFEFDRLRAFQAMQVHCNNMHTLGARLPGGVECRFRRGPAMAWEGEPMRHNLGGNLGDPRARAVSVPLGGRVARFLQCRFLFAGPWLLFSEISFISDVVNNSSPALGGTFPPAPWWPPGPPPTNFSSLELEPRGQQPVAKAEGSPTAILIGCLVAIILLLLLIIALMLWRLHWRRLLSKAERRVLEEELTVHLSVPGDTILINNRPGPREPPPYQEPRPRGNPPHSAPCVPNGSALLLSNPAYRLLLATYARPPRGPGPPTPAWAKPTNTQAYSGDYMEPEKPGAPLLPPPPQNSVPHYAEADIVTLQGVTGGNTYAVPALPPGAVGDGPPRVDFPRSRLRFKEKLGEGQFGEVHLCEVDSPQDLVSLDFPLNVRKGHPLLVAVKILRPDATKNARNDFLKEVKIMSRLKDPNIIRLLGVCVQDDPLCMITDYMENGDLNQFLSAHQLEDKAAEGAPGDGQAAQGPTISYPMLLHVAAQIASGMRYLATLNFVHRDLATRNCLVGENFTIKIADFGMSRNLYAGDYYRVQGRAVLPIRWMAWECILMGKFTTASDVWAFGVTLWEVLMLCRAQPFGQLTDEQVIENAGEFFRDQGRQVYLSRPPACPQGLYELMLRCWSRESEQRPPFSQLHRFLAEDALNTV

Binder	MFI
B1	12500 MFI
B2	6020 MFI
B3	14400 MFI
B4	17800 MFI
B5	7490 MFI
B6	8020 MFI

The binders below were run against T2, human ECD-DDR1-His protein (human, UniProt Q08345 21-416) (assay: ELISA, coated antigen, apparent KD).
T2 construct: also called huDDR1-ECD-His; DDR1ECD-6Xhis; not shown: His tag
How it was run: (§1)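 Plates coated overnight at 4° C with 2 μg/mL purified tagged DDR1 ECD protein, BSA-blocked; serially diluted murine anti-DDR1 mAbs bound 1 hr at room temperature, detected with anti-mouse IgG-HRP and TMB (OD 450). Apparent KD taken as C-parameter of 4-parameter logistic fit of OD versus antibody concentration.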

T2 sequence (Q08345 21-416): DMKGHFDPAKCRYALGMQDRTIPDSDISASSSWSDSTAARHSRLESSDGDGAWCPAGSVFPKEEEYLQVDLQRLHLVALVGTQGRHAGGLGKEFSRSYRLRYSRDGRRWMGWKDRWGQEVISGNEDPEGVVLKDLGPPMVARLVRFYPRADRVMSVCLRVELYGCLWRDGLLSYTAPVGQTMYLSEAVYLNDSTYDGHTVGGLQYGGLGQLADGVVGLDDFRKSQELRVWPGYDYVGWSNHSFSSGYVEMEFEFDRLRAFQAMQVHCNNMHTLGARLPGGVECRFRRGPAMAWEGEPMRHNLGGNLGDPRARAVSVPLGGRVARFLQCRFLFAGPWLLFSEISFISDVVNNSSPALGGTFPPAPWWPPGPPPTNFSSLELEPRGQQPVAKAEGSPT

Binder	Kd
B1	0.617 nM
B2	0.275 nM
B3	0.181 nM
B4	0.398 nM
B5	0.554 nM
B6	0.205 nM

Each binder was assayed against T3, DDR1ECD-Fc (R&D Systems, Catalog #2396-DR) (human, UniProt Q08345 21-416) (assay: ELISA, coated antigen, apparent KD).
T3 construct: range 21-416; construct as described for the bought immunogen; also called human ECD-DDR1-Fc; Fc-ECD-DR1; not shown: human IgG1, Pro100-Lys330
How it was run: as §1

T3 sequence (Q08345 other isoform, or with tags, fused parts or gaps limits assumed): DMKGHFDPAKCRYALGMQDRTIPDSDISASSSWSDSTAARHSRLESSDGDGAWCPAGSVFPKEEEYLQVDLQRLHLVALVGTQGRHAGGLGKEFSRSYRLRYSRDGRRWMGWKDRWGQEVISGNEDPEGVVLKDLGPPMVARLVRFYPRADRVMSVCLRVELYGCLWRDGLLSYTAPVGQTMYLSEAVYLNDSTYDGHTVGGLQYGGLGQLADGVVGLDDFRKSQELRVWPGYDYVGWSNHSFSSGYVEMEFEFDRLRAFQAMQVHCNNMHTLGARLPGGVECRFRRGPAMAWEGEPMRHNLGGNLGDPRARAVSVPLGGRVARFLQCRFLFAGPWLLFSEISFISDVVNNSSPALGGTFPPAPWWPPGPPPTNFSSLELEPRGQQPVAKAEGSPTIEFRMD

Binder	Kd
B1	0.561 nM
B2	0.287 nM
B3	0.154 nM
B4	0.431 nM
B5	0.374 nM
B6	0.346 nM
